# Test results taken from patent US20240324599A1, “PESTICIDAL ENZYMES FOR USE ON NEMATODES, INSECTS, AND MOLLUSKS” (priority 2023, published 2024).
# Like-named read-outs stand apart in the source and are kept apart here.
# What was measured:
# [1] = tested on: SCN juveniles (SCN HG type 1.2.5.7, race 2); assay type: in vivo; conditions: for Difference in Percent Death of Nematodes for 0 to 24 Hours: 40 μL of each treatment per well
# Description: To identify an additional esterase enzyme with efficacy in reducing SCN viability, we performed an in-vitro plate assay with a Pseudomonas sp. esterase (SEQ ID NO: 248) free enzyme direct treatment. The Pseudomonas sp. esterase (SEQ ID NO: 248) was produced by fermentation in Bacillus subtilis. The enzyme was cloned into a Bacillus expression plasmid p1797 with isopropyl β-d-1-thiogalactopyranoside (IPTG) inducible expression. The plasmid was transformed into B. subtilis, and the gene sequence was confirmed. The strain was grown in rich media until an optical density (OD) 0.2-0.5 was reached. Enzyme expression was then induced by addition of […] IPTG. Following the culture harvest, cells were removed by filtration through a […] filter. The culture filtrate containing the secreted enzyme was then collected and used for further applications.
# (§1) SCN eggs were obtained from SCN HG type 1.2.5.7, race 2. Eggs were rinsed 4 times with sterile water. Eggs were transferred to a 6-well plate and resuspended in 5 mL of 3 mM ZnSO4. The plate was sealed with parafilm, covered with aluminum foil to prevent light from entering the plate, and placed in a plate growth chamber at 25° C. and 80% relative humidity. After 6-7 days of incubation, an estimate of hatched SCN juveniles was obtained from the well to determine the overall number of juveniles per 10 μL. The concentration of the hatchery solution was adjusted until it consisted of 20-30 juveniles per 10 μL.
# Potato dextrose agar media containing chloramphenicol and chlortetracycline was prepared and added to sterile twenty-four-well cell culture plates (1 mL per well). The plates were divided according to the pre-determined N-value for each treatment (N=12-24). Each treatment being tested was added to the agar surface within each well at a rate of 40 μL per well. Without allowing the treatments to dry, 10 μL of the prepared nematode mixture was added to the agar surface within each well.
# To quantify the treatments' effects on nematode viability, the nematodes were examined under a dissecting microscope at 20× magnification. Initial (T0) values for the number of live juveniles, number of dead juveniles and total number of juveniles were recorded immediately after preparation of each well. The plates were then wrapped in parafilm around the open edge, encased in aluminum foil, and placed in secondary containment. The secondary containment was placed in a plant growth chamber at 25° C. and 80% relative humidity. At approximately 24 hours post addition of juveniles, the plates were evaluated, and the number of live juveniles, dead juveniles and total number of juveniles were recorded (T24).
# The difference in percent death at T0 vs T24 was calculated by subtracting the percent dead at TO [(#dead juveniles/total #juveniles)×100] from the percent dead at T24 [(#dead juveniles/#total juveniles originally present)×100]. […] If the ANOVA indicated a significant difference existed among treatments, Tukey's HSD post hoc test was used to perform a pairwise contrast between each set of treatments. Different letters denote statistically significant results at P<0.05.
# as §1, with “from” for “from SCN”, “rinsed four” for “rinsed 4”, “and 80-90%” for “and 80%”, “from each” for “from the”
# Potato dextrose agar media containing chloramphenicol and chlortetracycline was prepared and added to sterile twenty-four-well cell culture plates (1 mL per well). […]
# [2] = tested on: Diamondback moth (Plutella xylostella); experiment: Diet-surface overlay (DSO) bioassay; assay type: in vivo
# Description: Diet-surface overlay bioassays are conducted with artificial diet mixes without antibiotics in 1.5 cm^2 cell bioassay trays(s). Artificial diets are commercially available from Southland Products Inc. Diets were prepared by dispersing 0.5 mL of molten diet to each 1.5 cm^2 cell. After solidification, 0.1 mL enzyme treatments were dispersed on top of diet in each cell and the tray was gently rocked in an orbital shaker to spread the liquid uniformly over the diet surface. Trays were placed under clean airflow until the surface of each cell was uniformly dried. One or two 16-cell sections were used per treatment (the number in larvae treated was 16 or 32).
# One healthy first instar larva was placed into each treatment cell, each 16-cell section was covered with a re-sealable lid and incubated at 27° C. and light-dark period of 16:8 hrs. After 7 days, and according to the species, the number of individuals in the following developmental categories was recorded.
# Diamondback moth (Plutella xylostella): Dead Larva (lack of movement), Larva Stage I (≤50% relative size), Larva Stage II (100% relative size, full size), Early Pupa (light green color), Late Pupa (light-dark brown color), and Adult.
# Negative/untreated controls were treated with filtered water and positive controls were treated with lethal doses of Bacillus thuringiensis subsp. Kurstaki (Btk) spores at 1000 ppm.
# SCN nematodes = experiment: Foliar spray on strawberry leaf segments: nematode death; assay type: in vivo, Heterodera glycines; conditions: Table 40, 0.6% spray solution on strawberry leaf segments
# Description: To determine whether a nematicidal enzyme can cause nematode death when sprayed as a foliar treatment, a trial was performed using chitinase 19F (SEQ ID NO: 182). The free enzyme was produced as described in Example 2. A SCN hatchery was set up as described in Example 2, except that no bleach sterilization step was performed. Six days later, the concentration of hatched nematodes was determined. Leaves from Quinault strawberry plants (Fragaria× ananassa) were cut into square sections and placed in the wells of a 24-well plate with the abaxial side up. Twenty-four wells were set up for each treatment. Spray solutions were created with water alone and water plus fermentation broth with chitinase 19F (SEQ ID NO: 182). For the base strain control and chitinase solutions, 0.094 mL of fermentation broth was added to 15 mL of water (0.6% solution) to model a field spray application of 8 fl oz. per acre. Treatments were added to a small spray bottle and each leaf segment was sprayed approximately 3 times. After the leaves had dried, approximately 100 nematodes were added to each leaf segment. […] The number of alive and dead nematodes were counted for each well, and the average percentage of dead nematodes were calculated for each treatment. […]
# [3] = Table 49, esterases, number of individuals, n = 32
Molecule,"Difference in Percent Death of Nematodes for 0 to 24 Hours ([1]; Table 28, fertilizer 3% v/v) [%]","difference in percent death over twenty-four hours, single treatment relative to the combination Esterase B + 10-34-0 fertilizer ([1]; text to Table 28) [%]","Adult [2, 3]","Early Pupa [2, 3]","Larva Stage I [2, 3]","Larva Stage II [2, 3]","Late Pupa [2, 3]","Dead Larva ([2]; Table 49, esterases, number of individuals, n = 32, dose per treatment in U/mL Diet)",individuals at larva stage ([2]; text to Table 49) [%],individuals with delayed larva-pupa development ([2]; text to Table 49) [%],"Difference in Percent Death of Nematodes for 0 to 24 Hours ([1]; Table 32, water only 4%) [%]",difference in percent death during 24 hours ([1]; text to Table 32) [%],Average percentage of dead nematodes at 0 hours (SCN nematodes; water only 4%) [%],Average percentage of dead nematodes at 24 hours (SCN nematodes; water only 5%) [%]
"Bacillus subtilis Esterase (EstB without signal sequence) (protein, listed as Bacillus subtilis, Esterase (EstB H191 without signal sequence)) ESVHNPVVLVHGISGASYNFFAIKNYLISQGWQSNKLYAIDFYDKTGNNLNNGPQLASYVDRVLKETGAKKVDIVAHSMGGANTLYYIKYLGGGNKIQNVVTLGGANGLVSSTALPGTDPNQKILYTSIYSLNDQIVINSLSRLQGARNIQLYGIGHIGLLSNSQVNGYIKEGLNGGGLNTN",3,−7,0,4,3,8,17,0,34,47,–,–,–,–
"Streptomyces coelicolor Chitinase F (Chi19F) (protein, Chitinase F (Chi19F); Streptomyces coelicolor) ASCSSYHAWSADANYNTGDIVRYTDGKAYIAEHANPGYDPLISTWYWDPYACDGGSQTPVGNFVVSEAQFNQMFPGRNSFYTYSGLTAALSAYPGFANTGSDTTKKQEAAAFLANVSHETGGLVYIVEQNTANYPHYCDWNQPYGCPAGQAAYYGRGPIQLSWNFNYKAAGDALGIDLLGNPWLVQNDAAVAWKTGLWYWNTQSGPGTMTPHNAMVNGAGFGQTIRSINGSLECDGKNPAQVQSRVTKYQQFAQILGVSPGGNLYC",–,–,–,–,–,–,–,–,–,–,24,24,3,12
